{
  "source": "paper PMC3542337",
  "biological_target": "E18A DJ-1-FLAG (in HeLa cells) (human) (UniProt Q99497)",
  "test": "cross-linking; HeLa cells transfected with FLAG-tagged DJ-1, without or with 20 uM CCCP for 7 hrs; cell extracts treated with 100 uM DSS for 10 min; Western blot with anti-FLAG",
  "data": [
    {"substance": "E18A DJ-1-FLAG (in HeLa cells) (from UniProt Q99497 1-189) (natural protein)", "values": [
      {"measurement": "ratio of dimer (cells treated with CCCP)", "result": 68.7},
      {"measurement": "ratio of dimer (cells without CCCP)", "result": 57.2}
    ]}
  ]
}
